Fewer inactive variants are shown than the library holds.
B1: TPR 5TU (parent)
chain: GGAUCUUCUCGAUCUAACAAAAAAGACAAAUCUGCCACAAAGCUUGAGAGCAUCUUCGGAUGCAGAGGCGGCAGCCUUCGGUGGCGCGAUAGCGCCAACGUUCUCAACUAUGACACGCAAAACGCGUGCUCCGUUGAAUGGAGUUUAUCAUG

Variants of: B1
Assay: polymerase ribozyme fitness, log enrichment relative to wild type (log ratio); higher = more active; in vitro selection for triplet polymerase activity
Outline: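 Mutant libraries of each subunit of a heterodimeric triplet polymerase ribozyme were built by PCR and transcribed. Each library went through one round of in vitro selection in triplicate: annealing with biotinylated primer, partner subunit and triplets, frozen incubation at −7 °C, gel excision of extended constructs, streptavidin-bead capture and RT-PCR. Input and output libraries were Illumina-sequenced; only genotypes with ≥10 input reads and ≥1 read per output were kept. Fitness is log2(genotype enrichment/wild-type enrichment), using inverse-variance-weighted replicate averages.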

First: A138U G141C
Second: G128U A137U
The “polymerase ribozyme fitness (log ratio)” value of the first is lower: -3.88 for the first, -3.34 for the second.

Compared with G136A A147G, A137G U144A is lower in “polymerase ribozyme fitness (log ratio)” value: -1.36 for the first, -3.01 for the second.

Compared with G141C A150G, G140A G143U is lower in “polymerase ribozyme fitness (log ratio)” value: -3.78 for the first, no more than -4.2 for the second.

C131G A137U and G141A C149G are within 0.2 log units of each other in “polymerase ribozyme fitness (log ratio)” value: -4.16 for the first, -4.13 for the second.

Compared with U139G U148A, G136U U144G is lower in “polymerase ribozyme fitness (log ratio)” value: -2.73 for the first, -3.29 for the second.

Going from U134C A142C to U139A U144A, the “polymerase ribozyme fitness (log ratio)” value falls from -0.0581 to -4.15.

Compared with G128U U144C, U146G A150G G152A is higher in “polymerase ribozyme fitness (log ratio)” value: -3.96 for the first, -1.84 for the second.

Going from U145C U146G to U127G U134A, the “polymerase ribozyme fitness (log ratio)” value falls from 0.121 to -4.18.

First: A137C A138G
Second: U135G G141U U146G
The “polymerase ribozyme fitness (log ratio)” value of the first is higher: -3.68 for the first, no more than -4.2 for the second.

Going from G140U U146C to G140U U146G, the “polymerase ribozyme fitness (log ratio)” value falls from -3.33 to -3.88.

Compared with G126A G143A, U144C A150C is lower in “polymerase ribozyme fitness (log ratio)” value: -1.92 for the first, -4.19 for the second.

Going from G133A G141U to U139C U144A, the “polymerase ribozyme fitness (log ratio)” value falls from -3.08 to -3.36.

Going from G128A G141A G143U U144G U151A to U145G U151G, the “polymerase ribozyme fitness (log ratio)” value rises from no more than -4.2 to -4.07.

Compared with C132U U135A, C125U U134G A142C is lower in “polymerase ribozyme fitness (log ratio)” value: -2.46 for the first, -3.76 for the second.

Compared with C125U A150U, C123U A142U is lower in “polymerase ribozyme fitness (log ratio)” value: -0.413 for the first, -1.13 for the second.

Compared with U135A C149U, G124C G140C is lower in “polymerase ribozyme fitness (log ratio)” value: -0.66 for the first, -4.05 for the second.

Compared with C123A, C123U is higher in “polymerase ribozyme fitness (log ratio)” value: -0.404 for the first, 0.225 for the second.

Going from C123G to A137U U148G, the “polymerase ribozyme fitness (log ratio)” value falls from -0.337 to no more than -4.2.

Going from A122U U146C to C123U U145A, the “polymerase ribozyme fitness (log ratio)” value rises from -0.714 to 0.729.

Going from G124U U135C to C149A, the “polymerase ribozyme fitness (log ratio)” value falls from -2.36 to -3.33.

Compared with C149G, C149U is higher in “polymerase ribozyme fitness (log ratio)” value: -2.78 for the first, -0.847 for the second.

Compared with C132U G152U, C125U G126A is lower in “polymerase ribozyme fitness (log ratio)” value: -2.75 for the first, -3.14 for the second.

First: G136C U151G
Second: G133A U134G
The “polymerase ribozyme fitness (log ratio)” value of the first is lower: no more than -4.2 for the first, -2.81 for the second.

Going from U127G A138G A142C to G126A C132G, the “polymerase ribozyme fitness (log ratio)” value rises from -3.48 to -2.68.

Going from U127G A137U to U134A A142G, the “polymerase ribozyme fitness (log ratio)” value rises from -4.19 to -3.04.

Going from U134A A142C to C129G U134G, the “polymerase ribozyme fitness (log ratio)” value falls from -2.66 to -3.81.

G128C A150U and U127C C131A G152U are within 0.2 log units of each other in “polymerase ribozyme fitness (log ratio)” value: -4 for the first, -3.91 for the second.

Compared with C131A, C131U is higher in “polymerase ribozyme fitness (log ratio)” value: -1.77 for the first, 1.18 for the second.

C131G and G126A A150G are within 0.2 log units of each other in “polymerase ribozyme fitness (log ratio)” value: -2.79 for the first, -2.66 for the second.

U135G A137U and U135A G136C are within 0.2 log units of each other in “polymerase ribozyme fitness (log ratio)” value: -4.04 for the first, -4.14 for the second.

Going from G128U A142C to G124C U135A, the “polymerase ribozyme fitness (log ratio)” value rises from -3.6 to -1.84.

Compared with C129U, C129A is lower in “polymerase ribozyme fitness (log ratio)” value: -0.0537 for the first, -2.46 for the second.

First: C129G
Second: G124U G143U U148G
The “polymerase ribozyme fitness (log ratio)” value of the first is higher: -2.45 for the first, no more than -4.2 for the second.

G126A C129G and U127A U134C G141C are within 0.2 log units of each other in “polymerase ribozyme fitness (log ratio)” value: -3.97 for the first, -3.82 for the second.

A138U A147U and G128A G133A U134C A150G are within 0.2 log units of each other in “polymerase ribozyme fitness (log ratio)” value: -3.38 for the first, -3.52 for the second.

Compared with C125A A147U, U127G G136A is lower in “polymerase ribozyme fitness (log ratio)” value: -0.189 for the first, -2.89 for the second.

Going from G140C to G140U, the “polymerase ribozyme fitness (log ratio)” value rises from -3.16 to -2.62.

First: G140A
Second: C132U C149G
The “polymerase ribozyme fitness (log ratio)” value of the first is higher: -2.67 for the first, -3.84 for the second.

First: A138C U139A
Second: C132G
The “polymerase ribozyme fitness (log ratio)” value of the first is lower: -3.78 for the first, -3.15 for the second.
